Experiment [1] has as its target T1, CRISP2 L98G, His-tagged (human, UniProt P16562 22-243, L98G, RED-tris-NTA fluorescent label on the His tag).
T1 sequence: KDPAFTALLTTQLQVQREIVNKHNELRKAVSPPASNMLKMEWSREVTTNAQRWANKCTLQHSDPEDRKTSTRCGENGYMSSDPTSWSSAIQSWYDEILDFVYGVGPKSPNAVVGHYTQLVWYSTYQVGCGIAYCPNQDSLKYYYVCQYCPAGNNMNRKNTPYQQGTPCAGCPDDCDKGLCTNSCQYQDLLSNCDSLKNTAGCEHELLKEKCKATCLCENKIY
The experiment is described as follows: MST.

Experiment [2] concerns the target T2, CRISP2 Y99P, His-tagged (human, UniProt P16562 22-243, Y99P, RED-tris-NTA fluorescent label on the His tag).
T2 sequence: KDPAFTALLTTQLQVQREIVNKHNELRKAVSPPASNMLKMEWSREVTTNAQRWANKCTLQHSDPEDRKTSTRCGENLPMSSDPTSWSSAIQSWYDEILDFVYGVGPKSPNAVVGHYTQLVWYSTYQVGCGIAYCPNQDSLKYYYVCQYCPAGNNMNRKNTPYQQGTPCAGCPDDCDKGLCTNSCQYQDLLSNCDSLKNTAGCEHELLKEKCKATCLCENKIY
The experiment is described as follows: MST.

Experiment [3] addresses T3, CRISP2 N97P, His-tagged (human, UniProt P16562 22-243, N97P, RED-tris-NTA fluorescent label on the His tag).
T3 sequence: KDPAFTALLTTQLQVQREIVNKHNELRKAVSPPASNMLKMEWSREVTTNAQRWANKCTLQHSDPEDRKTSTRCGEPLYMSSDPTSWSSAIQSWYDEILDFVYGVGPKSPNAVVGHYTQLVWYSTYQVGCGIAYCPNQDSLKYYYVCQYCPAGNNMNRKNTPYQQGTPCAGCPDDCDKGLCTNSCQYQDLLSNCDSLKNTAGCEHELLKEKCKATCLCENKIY
The experiment in a line: MST.

The target in experiment [4] is T4, CRISP2 (cysteine-rich secretory protein 2), C-terminal polyhistidine tag (human, UniProt P16562 22-243, RED-tris-NTA fluorescent label on the His tag).
T4 construct: also called Tpx-1; testis-specific protein 1; source: E. coli BL21, purified (nickel-NTA); not shown: polyhistidine, C-terminal, kept
T4 sequence (looked up): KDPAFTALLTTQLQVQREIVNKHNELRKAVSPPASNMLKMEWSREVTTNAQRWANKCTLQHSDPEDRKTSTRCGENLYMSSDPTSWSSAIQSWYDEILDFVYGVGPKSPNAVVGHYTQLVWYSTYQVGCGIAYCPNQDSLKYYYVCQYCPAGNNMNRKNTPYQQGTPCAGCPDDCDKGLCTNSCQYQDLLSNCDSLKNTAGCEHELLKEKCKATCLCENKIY
The experiment in a line: MST; 100 nM CAP protein labelled with RED-tris-NTA on its His tag, serial dilution of unlabeled PSP94 or PSP94^F24G; 20 mM Tris pH 7.5, 30 mM NaCl, 0.05% Triton X-100; Monolith NT.115, 80% laser power; triplicates. Conditions: both partners purified.

In experiment [5] the target is T5, CRISP2 N97P, His-tagged (human, UniProt P16562 22-243, N97P, RED-tris-NTA fluorescent label on the His tag).
T5 construct: CRISP2 with the point mutation N97P in the β2-strand; Same construct as m4 with the mutation; source: E. coli, purified; not shown: polyhistidine, C-terminal, kept
T5 sequence (looked up): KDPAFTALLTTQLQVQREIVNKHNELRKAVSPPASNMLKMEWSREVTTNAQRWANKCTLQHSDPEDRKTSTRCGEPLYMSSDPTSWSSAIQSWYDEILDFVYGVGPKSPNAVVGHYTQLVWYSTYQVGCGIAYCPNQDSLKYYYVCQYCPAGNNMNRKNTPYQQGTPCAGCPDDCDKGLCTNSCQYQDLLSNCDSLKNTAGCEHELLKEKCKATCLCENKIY
Described as above. As to conditions: both partners purified.

Experiment [6] deals with T6, CRISP2 Y99P, His-tagged (human, UniProt P16562 22-243, Y99P, RED-tris-NTA fluorescent label on the His tag).
T6 construct: CRISP2 with the point mutation Y99P in the β2-strand; Same construct as m4 with the mutation; source: E. coli, purified; not shown: polyhistidine, C-terminal, kept
T6 sequence (looked up): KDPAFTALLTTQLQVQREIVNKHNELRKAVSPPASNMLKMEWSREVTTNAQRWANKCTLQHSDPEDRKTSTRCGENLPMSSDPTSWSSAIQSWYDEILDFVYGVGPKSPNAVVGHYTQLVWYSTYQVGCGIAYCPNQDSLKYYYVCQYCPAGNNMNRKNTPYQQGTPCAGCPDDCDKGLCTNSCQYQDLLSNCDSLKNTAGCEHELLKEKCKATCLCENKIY
The description is as above. Conditions: both partners purified.

Experiment [7] concerns the target T7, Pry1 (pathogen related in yeast 1), C-terminal polyhistidine tag (S. cerevisiae, UniProt P47032 20-299, RED-tris-NTA fluorescent label on the His tag).
T7 construct: Pry1, S. cerevisiae CAP family member; source: E. coli BL21, purified (nickel-NTA); not shown: polyhistidine, C-terminal, kept
T7 sequence (looked up): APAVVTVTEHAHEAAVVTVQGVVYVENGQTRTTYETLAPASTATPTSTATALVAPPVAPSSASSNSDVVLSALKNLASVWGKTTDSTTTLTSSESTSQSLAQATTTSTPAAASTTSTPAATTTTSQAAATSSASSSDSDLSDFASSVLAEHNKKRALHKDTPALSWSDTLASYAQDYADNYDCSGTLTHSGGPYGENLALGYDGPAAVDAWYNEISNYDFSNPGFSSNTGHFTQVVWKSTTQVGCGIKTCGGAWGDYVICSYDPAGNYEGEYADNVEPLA
The description is as above. Conditions: both partners purified.

In experiment [8] the target is T8, CRISP2 L98G, His-tagged (human, UniProt P16562 22-243, L98G, RED-tris-NTA fluorescent label on the His tag).
T8 construct: CRISP2 with the point mutation L98G in the β2-strand; Same construct as m4 with the mutation; source: E. coli, purified; not shown: polyhistidine, C-terminal, kept
T8 sequence (looked up): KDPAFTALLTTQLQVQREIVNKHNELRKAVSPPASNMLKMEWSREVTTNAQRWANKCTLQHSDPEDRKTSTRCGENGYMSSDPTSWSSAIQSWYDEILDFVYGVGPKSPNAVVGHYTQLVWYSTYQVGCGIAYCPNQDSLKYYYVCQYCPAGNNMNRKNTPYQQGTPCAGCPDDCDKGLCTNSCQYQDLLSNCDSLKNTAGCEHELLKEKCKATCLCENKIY
Described as above. Conditions: both partners purified.

Experiment [9] has as its target T9, CRISP3 (cysteine-rich secretory protein 3), C-terminal polyhistidine tag (human, UniProt P54108 21-245, RED-tris-NTA fluorescent label on the His tag).
T9 construct: CRISP3, human; pET22b; source: E. coli, inclusion bodies, purified under denaturing conditions, renatured (nickel-NTA); not shown: polyhistidine, C-terminal, kept
T9 sequence (looked up): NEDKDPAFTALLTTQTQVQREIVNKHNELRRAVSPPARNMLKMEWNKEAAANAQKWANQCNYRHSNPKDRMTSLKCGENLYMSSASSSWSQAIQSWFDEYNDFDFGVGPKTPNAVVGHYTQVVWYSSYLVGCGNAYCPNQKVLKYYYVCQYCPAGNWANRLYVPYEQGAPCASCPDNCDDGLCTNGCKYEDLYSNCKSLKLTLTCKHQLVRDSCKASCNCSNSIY
The description is as above. Conditions: both partners purified.

The subject of experiment [10] is fatty acid export by CAP family members (CRISP2). The experiment is described as follows: Fatty acid export assay in yeast. The experiment is classed as cell-based, Saccharomyces cerevisiae. As to conditions: co-expression with CRISP2 in faa1Δ faa4Δ pry1Δ pry3Δ yeast. The source says:
We and others have previously shown that CAP proteins can bind eicosanoids and free fatty acids at a second lipid-binding site that is independent of the sterol-binding site ([30], [31]). To test whether PSP94 affects fatty acid binding by the CAP domain, we examined whether coexpression of PSP94 with CRISP2 affects fatty acid export from mutant cells lacking the two acyl-CoA synthases Faa1 and Faa4 and two of the three yeast CAP domain proteins, Pry1 and Pry3.
To analyze the CRISP2-dependent export of fatty acids, cells were grown overnight and the supernatant of 5 A600nm units of yeast cells was collected and dried in a freeze dryer. Fatty acid methyl esters (FAMEs) were produced by incubating the dried fractions at 85 °C for 45 min in 1 ml of methanol–sulfuric acid (5% v/v) supplemented with butylated hydroxytoluene (0.01% w/v). The FAMEs were extracted in a mixture containing 1.5 ml of NaCl (0.9% w/v) and 2 ml of hexane, and the upper phase was collected. FAMEs were then resuspended in heptane and separated on an Agilent 7890A gas chromatograph equipped with a DB-23 capillary column (30 m × 0.25 mm × 0.25 μm) (Agilent Technologies) and quantified relative to an internal standard (C17:0, 10 μg) as described ([31]).

For the next experiment, the target named is T10, CRISP2^N97P L98G (Homo sapiens, UniProt P16562, L98G/N97P).
T10 construct: made in house; host or cells: E. coli
T10 sequence (P16562 22-243 N97P/L98G): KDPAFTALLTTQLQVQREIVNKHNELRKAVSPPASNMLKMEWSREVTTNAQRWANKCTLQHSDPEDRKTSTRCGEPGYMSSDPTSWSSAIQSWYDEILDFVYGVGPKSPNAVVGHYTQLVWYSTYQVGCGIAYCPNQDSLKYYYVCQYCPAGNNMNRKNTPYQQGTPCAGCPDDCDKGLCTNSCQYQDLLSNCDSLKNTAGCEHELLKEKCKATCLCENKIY
The experiment is described as follows: MST binding to CRISP2 double mutant N97P L98G. The arrangement: species or system mammalian. As to conditions: read-out: Kd, protein-protein interaction with CRISP2^N97P L98G. On the procedure:
Next, we generated all three double mutant combinations of CRISP2: N97P L98G, N97P Y99P, and L98G Y99P. These three double mutant versions of CRISP2 were again expressed as His-tagged proteins in E. coli and purified, and their capacity to bind sterols in the presence or absence of PSP94 was assessed by MST. […] The capacity of the CRISP2^L98G Y99P double mutant to bind sterols even in the presence of PSP94 was confirmed by the in vivo sterol export assay (Fig. 6, A and B). When expressed in yeast cells, the CRISP2^L98G Y99P double mutant was stably expressed and secreted as monitored by Western blotting (Fig. 6C).
MST experiments were performed to assess protein–protein, protein–lipid, and protein–calcium interactions using a Monolith NT.115 (Nanotemper Technologies). Proteins were labeled using the RED-tris-NTA His tag protein labeling kit. Labeled CAP proteins, 100 nM, were mixed with a serial dilution of unlabeled PSP94, PSP9^F24G, cholesterol sulfate, or calcium chloride, prepared in binding buffer (20 mM Tris pH 7.5, 30 mM NaCl, 0.05% Triton X-100). Samples were loaded into MST standard capillaries, and MST measurements were performed using an 80% laser power setting. The dissociation constant Kd was obtained by plotting the normalized fluorescence (Fnorm) against the logarithm of ligand concentration. […]

The term Kd denotes the free concentration of one partner at which half of the binding sites on the other are occupied at equilibrium, for simple one-to-one binding.

B1: prostate secretory protein of 94 amino acids (PSP94), C-terminal polyhistidine tag (natural protein, human, UniProt P08118 21-114, looked up)
chain: SCYFIPNEGVPGDSTRKCMDLKGNKHPINSEWQTDNCETCTCYETEISCCTLVSTPVGYDKDNCQRIFKKEDCKYIVVEKKDPKKTCSVSEWII
notes: PSP94 (β-microseminoprotein), human; also called β-microseminoprotein; MSP; source: E. coli BL21, purified (nickel-NTA)
Consider B1, for which the dissociation constant (Kd) in the experiment with CRISP2 L98G, His-tagged [1] came to 8.6 nM; with CRISP2 Y99P, His-tagged [2], 9.3 nM; in the experiment with CRISP2 N97P, His-tagged [3] it was 8.1 nM; in [4], 6 nM; in experiment [7], 70 nM. The binding result is given as “binds” in the experiment with CRISP2 N97P, His-tagged [5]; “binds” in the experiment with CRISP2 Y99P, His-tagged [6]; “binds” with CRISP2 L98G, His-tagged [8]; “binds” in experiment [9].

B2: PSP94: prostate secretory protein of 94 amino acids, His-tagged, purified from E. coli; or expressed in yeast (protein)
chain: SCYFIPNEGVPGDSTRKCMDLKGNKHPINSEWQTDNCETCTCYETEISCCTLVSTPVGYDKDNCQRIFKKEDCKYIVVEKKDPKKTCSVSEWII
modifications: left off: polyhistidine, C-terminal, state not stated
notes: prostate secretory protein of 94 amino acids, His-tagged, purified from E. coli; or expressed in yeast
Turning to B2, in [10], the “effect on fatty acid export” value was “does not affect fatty acid binding and export”. In addition, the Kd with CRISP2^N97P L98G was 4 ± 1.8 nM.

The record behind these values is paper PMC8857485, “Prostate secretory protein 94 inhibits sterol binding and export by the mammalian CAP protein CRISP2 in a calcium-sensitive manner” (The Journal of Biological Chemistry, 2022).
